Experiments:
[1] = target: T1, recombinant biotinylated monomeric Fc fusion of cynomolgus Folate Receptor 1 (cy FolR1 ECD-AcTev-Fcknob-Avi … (cynomolgus, UniProt P0DOX5 223-449 = IgG part, biotin on the C-terminal Avi tag)); assay: SPR ProteOn, Fab analyte on immobilized antigen-Fc
T1 construct: also called cyFolR1-Fc; cyno FolR1
Description: (§1) Immobilization of antigens (ligand): Recombinant antigens were diluted with PBST (10 mM phosphate, 150 mM sodium chloride pH 7.4, 0.005% Tween 20) to 10 μg/ml, then injected at 30 μl/minute in vertical orientation. Injection of analytes: For ‘one-shot kinetics’ measurements, injection direction was changed to horizontal orientation, two-fold dilution series of purified Fab (varying concentration ranges) were injected simultaneously along separate channels 1-5, with association times of 200 s, and dissociation times of 600 s. Buffer (PBST) was injected along the sixth channel to provide an “in-line” blank for referencing. Association rate constants (kₒₙ) and dissociation rate constants (koff) were calculated using a simple one-to-one Langmuir binding model in ProteOn Manager v3.1 software by simultaneously fitting the association and dissociation sensorgrams. The equilibrium dissociation constant (KD) was calculated as the ratio koff/kₒₙ.

[2] = target: T2, recombinant biotinylated monomeric Fc fusion of human Folate Receptor 3 (hu FolR3 ECD-AcTev-Fcknob-Avi tag … (human, UniProt P0DOX5 223-449 = IgG part, biotin on the C-terminal Avi tag)); assay: SPR ProteOn, Fab analyte on immobilized antigen-Fc
T2 construct: also called FolR3-Fc
Description: as §1

[3] = target: T3, recombinant biotinylated monomeric Fc fusion of human Folate Receptor 1 (huFolR1 ECD-AcTev-Fcknob-Avi tag … (human, UniProt P0DOX5 223-449 = IgG part, biotin on the C-terminal Avi tag)); assay: SPR ProteOn, Fab analyte on immobilized antigen-Fc
T3 construct: also called huFolR1-Fc; human FolR1-Fc
Description: as §1

[4] = target: T4, recombinant biotinylated monomeric Fc fusion of human Folate Receptor 2 (hu FolR2 ECD-AcTev-Fcknob-Avi tag … (human, UniProt P0DOX5 223-449 = IgG part, biotin on the C-terminal Avi tag)); assay: SPR ProteOn, Fab analyte on immobilized antigen-Fc
T4 construct: also called FolR2-Fc
Description: as §1

[5] = target: T5, recombinant biotinylated monomeric Fc fusion of murine Folate Receptor 1 (mu FolR1 ECD-AcTev-Fcknob-Avitag … (murine, UniProt P0DOX5 223-449 = IgG part, biotin on the C-terminal Avi tag)); assay: SPR Biacore, single injection on immobilized antigen-Fc
T5 construct: also called muFolR1-Fc; murine FolR1
Description: (§2) Binding of FolR1 binders as IgG or in the T-cell bispecific format to different recombinant folate receptors (human FolR1, 2 and 3, murine FolR1 and cynomolgus FolR1; all as Fc fusions) was assessed by surface plasmon resonance (SPR). All SPR experiments were performed on a Biacore T200 at 25° C. with HBS-EP as running buffer (0.01 M HEPES pH 7.4, 0.15 M NaCl, 3 mM EDTA, 0.005% Surfactant P20, Biacore, Freiburg/Germany).
(§3) First the anti-FolR1 IgGs were analyzed by single injections (Table 1) to characterize their crossreactivity (to human, murine and cyno FolR1) and specificity (to human FolR1, human FolR2, human FolR3). Recombinant biotinylated monomeric Fc fusions of human, cynomolgus and murine Folate Receptor 1 (FolR1-Fc) or human Folate Receptor 2 and 3 (FolR2-Fc, FolR3-Fc) were directly coupled on a SA chip using the standard coupling instruction (Biacore, Freiburg/Germany). The immobilization level was about 300-400 RU. The IgGs were injected for 60 seconds at a concentration of 500 nM.

[6] = target: T2, recombinant biotinylated monomeric Fc …; assay: as above
Description: as §2, §3

[7] = target: T4, recombinant biotinylated monomeric Fc …; assay: as above
Description: as §2, §3

[8] = target: T5, recombinant biotinylated monomeric Fc …; assay: SPR ProteOn, Fab analyte on immobilized antigen-Fc
Description: Immobilization of antigens (ligand): Recombinant antigens were diluted with PBST (10 mM phosphate, 150 mM sodium chloride pH 7.4, 0.005% Tween 20) to 10 μg/ml, then injected at 30 μl/minute in vertical orientation. Injection of analytes: For ‘one-shot kinetics’ measurements, injection direction was changed to horizontal orientation, two-fold dilution series of purified Fab (varying concentration ranges) were injected simultaneously along separate channels 1-5, with association times of 150 or 200 s, and dissociation times of 200 or 600 s, respectively. Buffer (PBST) was injected along the sixth channel to provide an “in-line” blank for referencing. Association rate constants (kₒₙ) and dissociation rate constants (koff) were calculated using a simple one-to-one Langmuir binding model in ProteOn Manager v3.1 software by simultaneously fitting the association and dissociation sensorgrams. The equilibrium dissociation constant (KD) was calculated as the ratio koff/kₒₙ.

| Binder | Kd [1] [nM] | binding result [2] | Kd [3] [nM] | binding result [4] | binding result [5] | further results |
| --- | --- | --- | --- | --- | --- | --- |
| 15A1 Fab (Fab, V domains shown, bacterial Fab) VH: QVQLVQSGAEVKKPGASVKVSCKASGYTFTSYYMHWVRQAPGQGLEWMGIINPSGGSTSYAQKFQGRVTMTRDTSTSTVYMELSSLRSEDTAVYYCARNYYIGVVTFDYWGQGTLVTVSS VL: QAVVTQEPSLTVSPGGTVTLTCGSSTGAVTTSNYANWVQEKPGQAFRGLIGGTNKRAPGTPARFSGSLLGGKAALTLSGAQPEDEAEYYCALWYSNLWVFGGGTKLTVL | 17.3 | no binding | 30.9 | no binding | – | – |
| 16F12 IgG (antibody, V domains shown, human IgG1) VH: QVQLVQSGAEVKKPGASVKVSCKASGYTFTSYYMHWVRQAPGQGLEWMGIINPSGGSTSYAQKFQGRVTMTRDTSTSTVYMELSSLRSEDTAVYYCARNFTVLRVPFDYWGQGTLVTVSS VL: QAVVTQEPSLTVSPGGTVTLTCGSSTGAVTTSNYANWVQEKPGQAFRGLIGGTNKRAPGTPARFSGSLLGGKAALTLSGAQPEDEAEYYCALWYSNLWVFGGGTKLTVL | – | – | – | – | no binding (tested: 500 nM) | binding result [6]: no binding (tested: 500 nM); binding result [7]: no binding (tested: 500 nM) |
| 16A3 Fab (Fab, V domains shown, bacterial Fab) VH: QVQLVQSGAEVKKPGASVKVSCKASGYTFTSYYMHWVRQAPGQGLEWMGIINPSGGSTSYAQKFQGRVTMTRDTSTSTVYMELSSLRSEDTAVYYCARNYYAGVTPFDYWGQGTLVTVSS VL: QAVVTQEPSLTVSPGGTVTLTCGSSTGAVTTSNYANWVQEKPGQAFRGLIGGTNKRAPGTPARFSGSLLGGKAALTLSGAQPEDEAEYYCALWYSNLWVFGGGTKLTVL | 18 | no binding | 21.7 | no binding | – | – |
| 15B6 IgG (antibody, V domains shown, human IgG1) VH: QVQLVQSGAEVKKPGASVKVSCKASGYTFTSYYMHWVRQAPGQGLEWMGIINPSGGSTSYAQKFQGRVTMTRDTSTSTVYMELSSLRSEDTAVYYCARNYYIGIVPFDYWGQGTLVTVSS VL: QAVVTQEPSLTVSPGGTVTLTCGSSTGAVTTSNYANWVQEKPGQAFRGLIGGTNKRAPGTPARFSGSLLGGKAALTLSGAQPEDEAEYYCALWYSNLWVFGGGTKLTVL | – | – | – | – | no binding (tested: 500 nM) | binding result [6]: no binding (tested: 500 nM); binding result [7]: no binding (tested: 500 nM) |
| 19H3 Fab (Fab, V domains shown, bacterial Fab) VH: QVQLVQSGAEVKKPGASVKVSCKASGYTFTSYYMHWVRQAPGQGLEWMGIINPSGGSTSYAQKFQGRVTMTRDTSTSTVYMELSSLRSEDTAVYYCARTGWSRWGYMDYWGQGTLVTVSS VL: QAVVTQEPSLTVSPGGTVTLTCGSSTGAVTTSNYANWVQEKPGQAFRGLIGGTNKRAPGTPARFSGSLLGGKAALTLSGAQPEDEAEYYCALWYSNLWVFGGGTKLTVL | – | no binding | – | no binding | – | binding result [1]: no binding; binding result [3]: no binding |
| 20G6 Fab (Fab, V domains shown, bacterial Fab) VH: QVQLVQSGAEVKKPGASVKVSCKASGYTFTSYYMHWVRQAPGQGLEWMGIINPSGGSTSYAQKFQGRVTMTRDTSTSTVYMELSSLRSEDTAVYYCARGEWIRYYHFDYWGQGTLVTVSS VL: QAVVTQEPSLTVSPGGTVTLTCGSSTGAVTTSNYANWVQEKPGQAFRGLIGGTNKRAPGTPARFSGSLLGGKAALTLSGAQPEDEAEYYCALWYSNLWVFGGGTKLTVL | – | no binding | – | no binding | – | binding result [1]: no binding; binding result [3]: no binding |
| 21D1 Fab (Fab, V domains shown, bacterial Fab) VH: QVQLVQSGAEVKKPGASVKVSCKASGYTFTSYYMHWVRQAPGQGLEWMGIINPSGGSTSYAQKFQGRVTMTRDTSTSTVYMELSSLRSEDTAVYYCARNYYVGVSPFDYWGQGTLVTVSS VL: QAVVTQEPSLTVSPGGTVTLTCGSSTGAVTTSNYANWVQEKPGQAFRGLIGGTNKRAPGTPARFSGSLLGGKAALTLSGAQPEDEAEYYCALWYSNLWVFGGGTKLTVL | 32.1 | no binding | 62.6 | no binding | – | – |
| 18D3 Fab (Fab, V domains shown, bacterial Fab) VH: QVQLVQSGAEVKKPGASVKVSCKASGYTFTSYYMHWVRQAPGQGLEWMGIINPSGGSTSYAQKFQGRVTMTRDTSTSTVYMELSSLRSEDTAVYYCARNYYTGGSSAFDYWGQGTLVTVS VL: QAVVTQEPSLTVSPGGTVTLTCGSSTGAVTTSNYANWVQEKPGQAFRGLIGGTNKRAPGTPARFSGSLLGGKAALTLSGAQPEDEAEYYCALWYSNLWVFGGGTKLTVL | 40.2 | no binding | 93.6 | no binding | – | – |
| 21G8 IgG (antibody, V domains shown, human IgG1) VH: not shown VL: QAVVTQEPSLTVSPGGTVTLTCGSSTGAVTTSNYANWVQEKPGQAFRGLIGGTNKRAPGTPARFSGSLLGGKAALTLSGAQPEDEAEYYCALWYSNLWVFGGGTKLTVL | – | – | – | – | no binding (tested: 500 nM) | – |
| 11F8 Fab (Fab, V domains shown, bacterial Fab) VH: QVQLVQSGAEVKKPGSSVKVSCKASGGTFSSYAISWVRQAPGQGLEWMGGIIPIFGTANYAQKFQGRVTITADKSTSTAYMELSSLRSEDTAVYYCARAVFYRAWYSFDYWGQGTTVTVSS VL: DIQMTQSPSTLSASVGDRVTITCRASQSISSWLAWYQQKPGKAPKLLIYDASSLESGVPSRFSGSGSGTEFTLTISSLQPDDFATYYCQQYTSPPPTFGQGTKVEIK | – | – | – | – | – | Kd [8]: 1200 nM |
| 5D9 IgG (antibody, V domains shown, human IgG1) VH: QVQLVQSGAEVKKPGASVKVSCKASGYTFTSYYMHWVRQAPGQGLEWMGIINPSGGSTSYAQKFQGRVTMTRDTSTSTVYMELSSLRSEDTAVYYCARSYIDMDYWGQGTLVTVSS VL: EIVLTQSPGTLSLSPGERATLSCRASQSVSSSYLAWYQQKPGQAPRLLIYGASSRATGIPDRFSGSGSGTDFTLTISRLEPEDFAVYYCQQDNWSPTFGQGTKVEIK | – | – | – | – | no binding (tested: 500 nM) | – |
| 6B6 IgG (antibody, V domains shown, human IgG1) VH: QVQLVQSGAEVKKPGASVKVSCKASGYTFTSYYMHWVRQAPGQGLEWMGIINPSGGSTSYAQKFQGRVTMTRDTSTSTVYMELSSLRSEDTAVYYCARSYVDMDYWGQGTLVTVSS VL: EIVLTQSPGTLSLSPGERATLSCRASQSVSSSYLAWYQQKPGQAPRLLIYGASSRATGIPDRFSGSGSGTDFTLTISRLEPEDFAVYYCQQDIWSPTFGQGTKVEIK | – | – | – | – | no binding (tested: 500 nM) | – |

Reference: patent US20220220224A1 (Hoffmann-La Roche, published 2022)
